Measurements from US10947270B2, “Targeted prodrug cytosine deaminase fusion carrier and application thereof” (National Yang-Ming University, priority 2015, dated 2021).

What was measured:
[1] = test system: HUVEC, U87MG and MCF-7 cells; assay: Specific binding assay of yCD series recombinant protein and cell, statement for the three cells; type: cell-based, human
Protocol: FIG. 5A, FIG. 5B, and FIG. 5C are respectively represented HUVEC cells, U87MG cells, MCF-7 cells seeded in 96-well plates for 24 hours, and then RGD4C-yCD, yCD, RGD4C-yCD/UPRT and yCD/UPRT with different concentrations are added for cells binding assay. After reacted with anti-His-HRP antibody and TMB substrate, ELISA reader (OD450 nm) is used to detect the amount of recombinant protein bound to the cells, and the binding curve is drawn. The nonlinear curve of the prism software is used to make a diagram and calculate the dissociation constant (Kd).
The anti-His6-Tag-HRP antibody and TMB show the color reagent to detect the amount of recombinant protein bound to the cell, then the dissociation constant Kd value of the recombinant protein and the integrin αvβ3 receptor is calculated and a binding curve is drawn. […] The cell binding ability of RGD4C-yCD for HUVEC and U87MG are about 7.7 folds and 6.8 folds higher than MCF-7 respectively. The cell binding ability of RGD4C-yCD/UPRT for HUVEC and U87MG are about 6.9 folds and 5.8 folds higher than MCF-7 respectively. […] It is shown that RGD4C-yCD and RGD4C-yCD/UPRT are specially bound with integrin αvβ3 through RGD4C sequence.

[2] = biological target: integrin αvβ3 receptor (Homo sapiens, UniProt P05106+P06756); assay: ELISA binding ability of DTPA modified and In-labeled yCD series protein to integrin αvβ3 receptor; settings: before and after modification, marking, purification
Sequence of integrin αvβ3 receptor (P06756 31-889 limits assumed): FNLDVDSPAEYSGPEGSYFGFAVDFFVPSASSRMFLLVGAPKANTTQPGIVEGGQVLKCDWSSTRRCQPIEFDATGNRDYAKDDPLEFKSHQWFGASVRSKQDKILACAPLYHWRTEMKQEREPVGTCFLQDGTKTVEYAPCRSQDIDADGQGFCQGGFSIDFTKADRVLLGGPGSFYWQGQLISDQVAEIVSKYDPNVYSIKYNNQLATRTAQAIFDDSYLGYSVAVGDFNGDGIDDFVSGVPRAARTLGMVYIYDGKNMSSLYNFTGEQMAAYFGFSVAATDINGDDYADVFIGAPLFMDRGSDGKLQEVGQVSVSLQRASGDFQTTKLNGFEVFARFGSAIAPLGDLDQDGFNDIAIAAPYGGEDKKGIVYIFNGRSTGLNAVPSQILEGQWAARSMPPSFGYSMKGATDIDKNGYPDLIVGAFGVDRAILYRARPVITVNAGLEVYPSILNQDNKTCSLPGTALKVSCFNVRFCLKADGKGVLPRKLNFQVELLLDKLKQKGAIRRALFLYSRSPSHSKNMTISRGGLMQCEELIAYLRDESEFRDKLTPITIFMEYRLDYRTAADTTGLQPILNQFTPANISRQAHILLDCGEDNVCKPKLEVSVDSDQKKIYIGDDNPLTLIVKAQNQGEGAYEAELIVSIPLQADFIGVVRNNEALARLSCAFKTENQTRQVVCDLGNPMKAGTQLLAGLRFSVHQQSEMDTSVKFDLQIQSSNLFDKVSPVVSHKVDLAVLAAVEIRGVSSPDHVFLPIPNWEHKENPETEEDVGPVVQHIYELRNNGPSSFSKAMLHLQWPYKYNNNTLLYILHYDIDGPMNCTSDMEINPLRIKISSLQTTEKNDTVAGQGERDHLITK
Sequence of integrin αvβ3 receptor (P06756 891-1048 partner limits assumed): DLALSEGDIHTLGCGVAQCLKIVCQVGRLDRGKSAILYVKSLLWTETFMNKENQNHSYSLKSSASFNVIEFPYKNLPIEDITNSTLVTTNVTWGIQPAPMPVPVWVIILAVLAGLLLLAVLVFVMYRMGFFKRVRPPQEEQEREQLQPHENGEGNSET
Sequence of integrin αvβ3 receptor (P05106 27-788): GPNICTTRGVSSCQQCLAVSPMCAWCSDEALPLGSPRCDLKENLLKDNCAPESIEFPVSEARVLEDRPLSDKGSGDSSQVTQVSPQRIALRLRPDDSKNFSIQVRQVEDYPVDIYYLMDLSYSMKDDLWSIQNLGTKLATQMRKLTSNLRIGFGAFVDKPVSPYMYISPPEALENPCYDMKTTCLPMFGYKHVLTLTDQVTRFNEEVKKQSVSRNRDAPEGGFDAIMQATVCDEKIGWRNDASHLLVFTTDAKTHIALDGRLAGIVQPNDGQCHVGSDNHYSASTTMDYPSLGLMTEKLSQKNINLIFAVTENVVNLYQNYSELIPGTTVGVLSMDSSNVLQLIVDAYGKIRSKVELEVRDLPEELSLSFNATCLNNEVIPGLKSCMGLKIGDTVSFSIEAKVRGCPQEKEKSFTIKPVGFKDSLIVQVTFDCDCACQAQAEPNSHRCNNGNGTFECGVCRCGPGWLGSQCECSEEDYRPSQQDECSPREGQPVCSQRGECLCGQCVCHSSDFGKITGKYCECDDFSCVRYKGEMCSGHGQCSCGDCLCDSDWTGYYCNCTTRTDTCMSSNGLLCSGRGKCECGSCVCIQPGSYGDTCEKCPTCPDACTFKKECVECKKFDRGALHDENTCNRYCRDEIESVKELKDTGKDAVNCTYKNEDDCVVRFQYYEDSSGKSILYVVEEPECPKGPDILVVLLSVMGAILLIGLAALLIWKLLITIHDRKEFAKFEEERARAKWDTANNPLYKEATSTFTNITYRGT
Text: The curve and receptor binding ability parameters (see FIG. 19 and Table 14) are fitted by the binding ability of DTPA-modified protein and integrin αvβ3 receptor through the One site-Specific binding formula in the Graph prism program.
Before the protein is labeled by radioisotope, its enzyme function must be determined, and based on the original enzyme function, it should be examined whether it will be affected during the radioactive marking process. The curve and enzyme kinetic parameters of protein are fitted by the Michaelis-Menten formula in the Graph prism program. […] Whether the yCD and RGD4C-yCD protein detected by the same method will be affected under the conditions of DTPA modification, marking and purification. […] After the completion of the radioactive metal mark, it is necessary to add EDTA of 10-fold protein Moire number and react at room temperature for 1 hour to compete for the radioactive metal isotope indium which is not chelated on DTPA. The EDTA in this step also has the chance to chelate the metal zinc ion of the enzyme catalytic center, the enzyme activity is impaired, so it is necessary to analyze the enzyme activity of In-DTPA-yCD and In-RGD4C-yCD protein after competition with EDTA. […]

[3] = Enzyme kinetic analysis of EcCD series fusion proteins, substrate 5-FC; type: biochemical
Text: FIGS. 11A-11D show the activity and kinetics analysis of EcCD series fusion protein enzymes, and the EcCD series proteins are combined with 5-FC at different concentrations for reaction. Respectively calculate the 5-FU formation reaction rate shown in FIG. 11A, 5-FC consumption reaction rate shown in FIG. 10B, uracil formation reaction rate shown in FIG. 10C and cytosine consumption reaction rate shown in FIG. 10D, substitute Michaelis-Menten formula, and calculate the base mass (Kcat) and Km value catalyzed by each mol enzyme in unit time.

[4] = Relative substrate selectivity of cytosine deaminase enzyme for 5-FC and cytosine (formula 1); type: biochemical; settings: relative substrate selectivity to 5-FC
Text: Evaluation of the relative substrate selectivity of cytosine deaminase enzyme for 5-FC and Cytosine can be expressed by the following formula 1,
The higher the value, the higher the selectivity of the enzyme to the 5-FC substrate.

[5] = Enzyme activity and kinetic analysis of yCD series recombinant proteins (5-FC converted into 5-FU); type: biochemical; settings: 50 nM protein
Protocol: FIGS. 2A-2B show the enzyme activities of RGD4C-yCD, yCD, RGD4C-yCD/UPRT and yCD/UPRT proteins to convert 5-FC to 5-FU. 50 nM of RGD4C-yCD, yCD, RGD4C-yCD/UPRT or yCD/UPRT protein reacted with increasing concentrations of 5-FC in phosphate buffered saline solutions. […] The measured data was used to plot the enzyme kinetic curve that takes the substrate concentration [S] as the x-axis and takes the initial reaction rate V0 as the y-axis,
The enzyme activity of 5-FC converted into 5-FU by RGD4C-yCD, yCD, RGD4C-yCD/UPRT and yCD/UPRT is performed. The recombinant protein concentration (50 nM) added with 5-FC at different concentrations. The 5-FC consumption and the generated amount of 5-FU is calculated. The measured data is taken as the x-axis by the substrate concentration [S]; the initial reaction rate V0 is the kinetic curve by making a diagramthe with y-axis (see FIG. 2A and FIG. 2B); the non-linear regression is made by the prism software according to the Michaelis-Menten equation; calculate the enzyme kinetic parameter Km and Vmax. […] It is speculated that the yCD function in each fusion protein is similar, but yUPRT may affect the effects of yCD and 5-FC.

B1: yCD: yeast cytosine deaminase (yCD) (SEQ ID NO: 1), recombinant protein without target molecule (protein)
chain: MVVTGGMASKWDQKGMDIAYEEAALGYKEGGVPIGGCLINNKDGSVLGRGHNMRFQKGSATLHGEISTLENCGRLEGKVYKDTTLYTTLSPCDMCTGAIIMYGIPRCVVGENVNFKSKGEKYLQTRGHEVVVVDDERCKKIMKQFIDERPQDWFEDIGELEHHHHHH
modifications: yCD
binding to the three cells [1]: weak binding | binding with integrin αvβ3 receptor [2]: can not be bound | Kcat ([3]; 5-FC consumption (Table 5)): 48.5 ± 1.3 s⁻¹ | Km ([3]; 5-FC consumption (Table 5)): 1000 ± 100 µM | Kcat ([3]; 5-FU generation): 47.2 ± 0.9 s⁻¹ | Km ([3]; 5-FU generation): 1000 ± 100 µM | [Kcat/Km(5-FC)]/{[Kcat/Km(cytosine)] + [Kcat/Km(5-FC)]} [4]: 0.771 | Km ([5]; calculated by 5-FC consumption): 700 ± 100 µM | Vmax ([5]; calculated by 5-FC consumption): 175.8 ± 4.7 µM/min | Km ([5]; calculated by 5-FU formation): 1000 ± 100 µM | Vmax ([5]; calculated by 5-FU formation): 164.2 ± 4.7 µM/min
